Assay results reported in US12636342B2, “TARS derived from Akkermansia muciniphila or fragment thereof, and use thereof” (KOREA RESEARCH INSTITUTE OF BIOSCIENCE AND BIOTECHNOLOGY, priority 2020, dated 2026).
“Also recorded” adds a separate entry of the source.

B1: ΔU2AmTARS: AmTARS mutant with deletion of unique region U2 (residues 290-312); construct SEQ ID NO 8 (protein)
chain: MSEHKERKTLEERQQMSDLERLRHSCAHVLATAICRLWPDAQLAGGPAVDNGFYYDVELDHRISTEDFERIEEEMKKVVKENQVFQKEVISRADAMKMAESGELGALGPRSEPSRFKIDLLNDIPEDEEISLYRNGDFTDLCAGPHVGRTGNCKAFKIMSVASAFYKGDKNRPMLQRIYGTCFPNRTQLDEHLERLEEARRRDHRKLGRELGLFCIDESVGQGLILWKPKGALIRRSLQDFITEELDKLGYSQVYTPNIGKLDLYRTSGHFPYYQESQYAPIPERDAMEYMLKPMNCPHHIKIYANDAHSYRDLPVRLAEFGTVYRWEQSGELGGMTRVRGFTQDDAHIFCTPDQLAGEIRQCLGIVKTIFGTLGMTDYRVRLSMRDPESDKYVGSPENWDKAEQALREAAEWLGADYSEEAGEAAFYGPKIDFIVRDAIGREWQLGTVQVDYNLPERFDLHYTGADNKPHRPVMVHRAPFGSMERFTGLLIEHFEGKFPTWLSPEQVRVLPISDKVTDVAAAHRTALAARGVRVTVDETPDKIGAKIRNARLDRVPYMLVLGQREAEDGTVSVRHRDKGDLGAMPFEQFADLVAREIAERHISPVI
modifications: misc_feature 1..1824 Akkermansia muciniphila TARS_del_Functional region 2
B2: ΔU1AmTARS: AmTARS mutant with deletion of unique region U1 (residues 99-113); construct SEQ ID NO 7 (protein)
chain: MSEHKERKTLEERQQMSDLERLRHSCAHVLATAICRLWPDAQLAGGPAVDNGFYYDVELDHRISTEDFERIEEEMKKVVKENQVFQKEVISRADAMKMSRFKIDLLNDIPEDEEISLYRNGDFTDLCAGPHVGRTGNCKAFKIMSVASAFYKGDKNRPMLQRIYGTCFPNRTQLDEHLERLEEARRRDHRKLGRELGLFCIDESVGQGLILWKPKGALIRRSLQDFITEELDKLGYSQVYTPNIGKLDLYRTSGHFPYYQESQYAPIPERDAMEKLSQEGASCAELFNGLATGTIEGYMLKPMNCPHHIKIYANDAHSYRDLPVRLAEFGTVYRWEQSGELGGMTRVRGFTQDDAHIFCTPDQLAGEIRQCLGIVKTIFGTLGMTDYRVRLSMRDPESDKYVGSPENWDKAEQALREAAEWLGADYSEEAGEAAFYGPKIDFIVRDAIGREWQLGTVQVDYNLPERFDLHYTGADNKPHRPVMVHRAPFGSMERFTGLLIEHFEGKFPTWLSPEQVRVLPISDKVTDVAAAHRTALAARGVRVTVDETPDKIGAKIRNARLDRVPYMLVLGQREAEDGTVSVRHRDKGDLGAMPFEQFADLVAREIAERHISPVI
modifications: misc_feature 1..1848 Akkermansia muciniphila TARS_del_Functional region 1

Assays:
BMDMs [1] = experiment: Global gene expression profiling (RNA sequencing) of BMDMs; format: cell-based, mouse
Protocol: (A-E) Global gene expression analysis. Total mRNA from BMDMs treated with either AmTARS (0.5 μM) or Pam3 (10 ng ml-1) for 1 or 3 h was isolated and analyzed by RNA sequencing (A). Principle components analysis (PCA) of the gene expression profiles for each sample (B). Hierarchical clustering of gene expression profiles from each sample identified cluster 3 and 4 (C). Gene set enrichment analysis (GSEA) of clusters 3 and 4 with respect to terms related to inflammation (D). […] (F) Overview of the experimental procedures for zebrafish. The yolk of Tg (NFκB:EGFP) transgenic zebrafish larvae (3 dpf) was injected with PBS or AmTARS. Injected larvae were treated at 3 and 5 dpf with 0.5% DSS for 24 h, with a washing period with fresh water for 24 h in between. Sample collection and analysis of Tg (NFκB:EGFP)-based EGFP intensity were conducted at 6 dpf. (G) Representative confocal images showing NF-κB signaling in the mid-distal intestines of PBS- or AmTARS-injected larvae with or without DSS treatment. White dashed lines denote the boundaries of the intestines (based on merged DIC bright field images). (H) Bar graph comparing the fluorescence intensity of the mid-distal intestines of PBS- or AmTARS-injected larvae treated (or not) with DSS (n=32 per PBS group and n=35 per DSS group). (I) Schematic model of the role of AmTARS in maintaining immune homeostasis via TLR2-mediated anti-inflammatory signaling pathways. Data shown in (A-C) are representative and repeated twice. Data shown in (H) are representative of three independent experiments, each similar results (mean±SEM). P-values were calculated by unpaired and two-tailed Student's t-test.
We next performed global gene expression profiling of BMDMs treated with AmTARS or Pam3 for 1 or 3 h (FIG. 32A). […] Subsets of genes showing different expression patterns between AmTARS and Pam3 were classified into six clusters by hierarchical clustering analysis (FIGS. 33A and 33B). The gene expression pattern at 3 h was particularly different for clusters 3 and 4 (FIGS. 32C, 33A, and 33B). […]

BMDMs [2] = experiment: Immunoblotting of AmTARS/TLR2-induced signaling molecules in BMDMs; format: cell-based, mouse; details: BMDMs stimulated for 30 min, 0.5 μM
Protocol: (A and B) Analysis of key molecules that inhibit the MAPK and PI3K/AKT signaling pathways. IL-10 produced by BMDMs pre-treated with inhibitors of ERK (PD98059, […]), p38 (SB203580, […]), MSK1/2 (SB747651A, 10 μM), CREB (666-15, 1 μM), PI3K (Wortmannin, 10 μM), and AKT1/2 (AKT1/2, 10 μM) for 1 h before treatment with either PBS or AmTARS for 24 h (n=6 per group) (A). Flow cytometry analysis of M2 macrophages in BMDMs pre-treated for 1 h with the indicated kinase inhibitors, before treatment with either PBS or AmTARS for 24 h (n=3 per group) (B). (C and D) Western blot analysis of MAPK signaling molecules in lysates of BMDMs (C) or THP1 cells (D) treated for different times with 0.5 μM AmTARS. (E) Western blot analysis of lysates of BMDMs pre-treated with α-IgG (Isotype, 1 μg ml-1) or α-TLR2 (1 μg ml-1) for 1 h before treatment with PBS, AmTARS (0.5 μM), or Pam3 (0.5 μM) for 30 min. (F and G) Western blot analysis of PI3K/AKT signaling molecules in lysates of BMDMs (F) or THP1 cells (G) treated with 0.5 μM AmTARS. (H) AmTARS activates both TLR2/1- and TLR2/6-mediated signaling. Activation of AKT, ERK, and CREB was measured by western blot analysis of lysates of THP1 cells pre-treated with α-IgG, α-TLR1, α-TLR2, or α-TLR6 (1 μg ml-1) for 1 h before treatment for 30 min with PBS or AmTARS (0.5 µM). Data shown in (A and B) are representative of three independent experiments, each with similar results (mean±SEM). P-values were calculated using an unpaired two-tailed Student's t-test. Data shown in (C-H) are representative and repeated at least three times.
Subsequently, we conducted immunoblotting assays to measure the time-dependent activation of AmTARS/TLR2-induced signaling molecules in both BMDMs and THP1 cells. AmTARS rapidly activated ERK, p38, and MSK1/2 within 15 min and, subsequently, phosphorylation of CREB at Ser133 (which is essential for IL-10 production) within 30 min in BMDMs (FIG. 31C) and THP1 cells (FIG. 31D). We then compared AmTARS-triggered TLR2 signaling with typical ligand-triggered signaling using Pam3CSK4 (the synthetic canonical TLR2/1 agonist, referred to hereafter as Pam3) in BMDMs stimulated for 30 min. […] By contrast, activation of NF-κB was greater in Pam3-treated BMDMs than in AmTARS-treated BMDMs (FIG. 31E).

[3] = Aminoacylation reaction (malachite green phosphate assay); format: biochemical; details: L-threonine, ATP, 30 min, free Pi at 620 nm
Protocol: TARS is an […] involved in protein synthesis, and the domain and site involved in its function are well known. The constructed deletion mutants were confirmed to have deletions of parts irrelevant to the function, but the aminoacylation reaction experiment was conducted to determine whether the deletion mutants performed the intrinsic functions thereof appropriately.
Specifically, a 2× reaction solution (100 mM Tris-HCl (pH 7.5), 20 mM MgCl2, 200 mM NaCl, 200 mM KCl, 2 mM DTT, 500 μM ATP, and 5 mM L-threonine) was prepared, and 25 μL of a reaction solution, 20 μL of distilled water, and 5 μL of protein were added to make a final 50 μL volume, followed by incubation for 30 min. Thereafter, a reaction was conducted using a malachite green phosphate assay kit (Bioassay Systems) for 30 min, and the free monophosphate group (Pi) was measured at a wavelength of 620 nm.

Raw 264.7 cells = experiment: ELISA of immune cytokine secretion in LPS-treated Raw 264.7 cells; format: cell-based, mouse; details: Raw 264.7, LPS, 24 h
Protocol: Next, to determine whether the regulation of immune cytokine secretion by AmTARS in an inflammatory environment was induced by the two functional sites, the mouse-derived immune cell Raw 264.7 cells were treated with LPS to induce an immune response by the method as in Example 3, and treated with AmTARS, ΔU1AmTARS, and ΔU2AmTARS for 24 h separately to obtain cell cultures. The obtained cell cultures were analyzed for Immune cytokine secretion by way of the same method as in Example 2.

[4] = test system: mouse model of dextran sulfate sodium (DSS)-induced colitis; experiment: DSS-induced colitis (inflammatory bowel disease) mouse model, intraperitoneal administration; format: in vivo; details: inflammatory bowel disease mouse model; for distribution of B cells in the colon: normal mice
Protocol: We evaluated the anti-inflammatory function of AmTARS in a mouse model of dextran sulfate sodium (DSS)-induced colitis. First, we assessed dose-dependent responses (i.e., changes in body weight and colon length) to intraperitoneal (i.p.) administration of AmTARS (0.05-0.4 mg/kg) once every other day for 10 days (FIG. 10A).
The disease activity score was calculated by adding up scores ranging from 0 to 4 points for each item of bloody stool, diarrhea, and weight loss, and the epithelial damage score was calculated by assigning 0 to 4 points according to the degree of colon tissue damage.
Next, to measure IgA, mouse feces were collected and diluted in PBS containing a protein inhibitor, and then a supernatant with impurities removed was obtained, and 100 μL was placed in each well of a 96-well plate to perform protein coating at 4° C. for 2 h. The plate was washed three times with a washing solution (50 mM Tris, 0.2% in PBS) and then incubated with 100 μL of blocking solution at room temperature for 1-2 h, followed by washing. HRP conjugated IgA antibody (1:30000) was added and then incubated at room temperature for 1 h, followed by washing. Thereafter, 100 μL of a substrate solution was added, followed by incubation for 30 min, and then 50 μL of a stop solution was added, followed by measurement at 405-450 nm by an ELISA reader. […]

[5] = test system: mouse bone marrow-derived macrophages (BMDMs); experiment: ELISA of immune cytokine secretion in BMDMs under normal conditions; format: cell-based; details: normal (non-inflammatory) conditions, 24 h
Protocol: Specifically, mouse bone marrow-derived macrophages (BMDMs) as mouse-derived immune cells were extracted from the mouse thighbone and shinbone, and then cultured in DMEM containing 10% fetal bovine serum (FBS) and antibiotics. Human macrophages (THP1) as human-derived immune cells were cultured in RPMI media containing 10% FBS and antibiotics.
The cultured cells were treated with AmTARS at 0.1 μM, 0.2 μM, and 0.5 μM for 24 h to obtain cell cultures. For cell removal, the media were centrifuged at 500×g for 10 min to obtain supernatants, which were then analyzed using an ELISA set (mouse interleukin (IL)-6, mouse IL-10, mouse tumor necrosis factor (TNF)-α, human IL-6, human IL-10, human TNF-α; BD Biosciences) to investigate the secretion of mouse- and human-derived immune cytokines. […]

Molecule | transcription factors associated with up-regulated genes (BMDMs [1]; GSEA (Enrichr)) | gene set enrichment analysis, inflammatory response-related genes (BMDMs [1]; Pam3 compared with AmTARS) | activation of NF-κB, Pam3 versus AmTARS (BMDMs [2]) | aminoacylation reaction / enzymatic activity [3] | secretion of IL-6 (Raw 264.7 cells) | secretion of IL-10 (Raw 264.7 cells) | secretion of TNF-α (Raw 264.7 cells) | amount of IgG increased by an inflammatory bowel disease [4] | distribution of B cells in the colon [4] | secretion/production of IL-10 [5]
Pam3CSK4 | up-regulation of inflammation-related transcription factors such as NF-κB, RELA, and TFAP2A | significant induction of inflammatory response-related genes | greater | – | – | – | – | – | – | –
B1 | – | – | – | an aminoacylation reaction was shown; also recorded: Neither mutant protein was different from the wild-type | no effect | no effect | no effect | did not show an effect of reducing the amount of IgG | reduced the efficacy of increasing B cells in the colon | abolished the IL-10 production
B2 | – | – | – | an aminoacylation reaction was shown; also recorded: Neither mutant protein was different from the wild-type | no effect | no effect | no effect | did not show an effect of reducing the amount of IgG | reduced the efficacy of increasing B cells in the colon | abolished the IL-10 production
